The values that follow come from PMC9204493.

What all share (experiment): SEC-MALS; Superose 6 Increase 10/300, 1x PBS pH 7.4, 0.4 mL/min, non-denaturing; self-assembly of the fusion protein into the nanoparticle
(In general: SEC sorts molecules by how far they enter the pores of the column.)

The target in assay [1] is Encapsulin-pH1HA10 (Myxococcus xanthus) (UniProt Q1D6H4).
Assay [2] concerns the target MsDps2-pH1HA10 (Mycobacterium smegmatis).
Assay [3] deals with pH1HA10-Ferritin (Helicobacter pylori) (UniProt Q9ZLI1).

In the case of “Encapsulin-pH1HA10 (from UniProt Q1D6H4 1-287)”, the stoichiometry N in assay [1] came to 180.

In the case of MsDps2-pH1HA10, the stoichiometry N in assay [2] stood at 12.

On to “pH1HA10-Ferritin (from UniProt Q9ZLI1 1-163)”, for which the stoichiometry N in assay [3] worked out at 24.

The term stoichiometry N denotes the number of molecules, sites or subunits per partner or assembly.
